# Laboratory results as given in patent publication US8106168B2, “Metalloproteinase binding proteins” (Dyax Corp., priority 2005, dated 2012).
# Target: MMP-14 (Homo sapiens, UniProt P50281)
# Assay: Selection and phage ELISA screening of anti-MMP-14 Fabs
# Type: binding
# Settings: Fab from FAB310 phage display library
# Description: Strategy I: A 100-fold excess of the FAB310 library (e.g., an amount of the library that should contain 100 copies of each library member) was depleted of streptavidin-binding antibodies by incubating the library with 200 μL of streptavidin beads for 1 hour at room temperature (RT) with rotation. 500 nM of biotinylated MMP-14 was coupled to streptavidin beads by incubation with 100 μL of streptavidin beads. The MMP-14 beads were then incubated with the streptavidin-depleted library for 1 hour at RT with rotation. The beads were then rinsed three times with 2% MTRIS/0.1% Tween, transferred to a fresh tube and washed an additional three times with 2% MTRIS/0.1% Tween, and transferred to a fresh tube and washed a final time with Round 1 TRIS buffer (50 mM TRIS; 50 mM CaCl2; 150 mM NaCl, pH 7.5).
# MMP-14 binding antibodies were eluted from the beads by re-suspension in 1 mL 2% MTRIS containing 2.5 μM TIMP-2 and incubation for 1 hour at RT with rotation. The beads were then washed three times with 2% MTRIS/0.1% Tween, transferred to a fresh tube and washed three times with TRIS/0.1% Tween, and transferred to a fresh tube and washed a final time with TRIS. 1 mL output was used for infection of 9 mL TG1 bacteria (grown to OD600=0.5). The beads were further eluted by suspension in 1 mL 100 mM TEA for 10 minutes. The supernatant was neutralized with 500 μl TRIS/HCl pH 7.5. 1 mL of the second elution was used for infection of 9 mL TG1 bacteria (grown to OD600=0.5).
# Two additional rounds of selection were carried out under the same conditions as the first round, except that the streptavidin beads were loaded with 100 nM biotinylated MMP-14 and the number of washes were doubled (6 times with 2% MTRIS/0.1% Tween, 6 times with TRIS/0.1% Tween and 2 times with TRIS), and Round 2/3 Tris buffer (50 mM TRIS; 5 mM CaCl2; 150 mM NaCl pH=7.5) was used for incubation and wash.
# TIMP-2 was coupled to carboxylic beads, then complexed with a combination of biotinylated MMP-14 (500 nM each). The complexed beads were incubated with a 100 fold excess of FAB310 library that had been previously depleted by incubation with streptavidin beads and carboxylic beads. Elution/washing was carried out as for Strategy I.
# Two additional rounds of selection were carried out, essentially as described for Strategy I, except that only 100 nM of each of MMP-14 were used in the bead complexes.
# 384-well plates were coated with biotinylated BSA (2 μg/ml in 50 mM TRIS; 5 mM CaCl2; 150 mM NaCl, pH 7.5), then washed 3 times with 50 mM TRIS; 5 mM CaCl2; 150 mM NaCl, pH 7.5; 0.1% Tween. Streptavidin was captured on the coated plates by incubation with 10 μg/mL streptavidin in 50 mM TRIS; 5 mM CaCl2; 150 mM NaCl pH 7.5; 0.5% Gelatin, followed by a wash with 50 mM TRIS; 5 mM CaCl2; 150 mM NaCl pH=7.5; 0.1% Tween. On the day the assay was to be performed, biotinylated MMP-14 (1 μg/ml) was captured in 50 mM TRIS; 5 mM CaCl2; 150 mM NaCl, pH 7.5.
# 95 clones were picked from each of Round 2 and Round 3 of each selection strategy, producing 12 masterplates. ELISA was run on the MiniTrak-5 deck according to SOP.
row,bind to human MMP-14,Molecule
1,bind to human MMP-14,"M0040-A03: Fab that binds human MMP-14; DNA LV SEQ ID NO: 80, HV SEQ ID NO: 81 (antibody, V domains shown, Synthetically generated oligonucleotide) VL: QDIQMTQSPSFVSASVGDRVTISCRASHNINTWLAWYQQKPGKAPNLLIYSASNLQGGVPSRFSGSGSGTDFTLTISSLQPGDFATYYCQQASSFPITFGQGTRLEIK VH: EVQLLESGGGLVQPGGSLRLSCAASGFTFSNYMMIWVRQAPGKGLEWVSWISPSGGYTFYADSVKGRFTISRDNSKNTLYLQMNSLRAEDTAVYYCARGYYDILTGMVGGGAFDIWGQGTTVTVSS"
2,bind to human MMP-14,"M0040-G04: Fab that binds human MMP-14; DNA LV SEQ ID NO: 98, HV SEQ ID NO: 99 (antibody, V domains shown, Synthetically generated oligonucleotide) VL: QSVLTQPPSASGTPGQRVTISCSGSRTNIGSDYVYWYQQLPGTAPKLLIYRNNERPSGVPDRFSGFKSGTSASLAISGLRSEDEADYYCASWDDRLSGPVFGGGTKLTVL VH: EVQLLESGGGLVQPGGSLRLSCAASGFTFSQYHMLWVRQAPGKGLEWVSVIVSSGGFTFYADSVKGRFTISRDNSKNTLYLQMNSLRAEDTAVYYCARSYGGDAFDIWGQGTMVTVSS"
3,bind to human MMP-14,"M0039-G07: Fab that binds human MMP-14; DNA LV SEQ ID NO: 76, HV SEQ ID NO: 77 (antibody, V domains shown, Synthetically generated oligonucleotide) VL: QDIQMTQSPGTLSLSPGERATLSCRASQSVNSRFLAWYQQKPGQAPRLLIYSTSTRATGIPDRFSGSGSGTDFTLTISRLEPEDFAVYYCQRYGSSPTWTFGQGTKVEIK VH: EVQLLESGGGLVQPGGSLRLSCAASGFTFSRYVMDWVRQAPGKGLEWVSRISPSGGHTDYADSVKGRFTISRDNSKNTLYLQMNSLRAEDTAVYYCARETVRGVYFDYWGQGTLVTVSS"
4,bind to human MMP-14,"M0040-H09: Fab that binds human MMP-14; DNA LV SEQ ID NO: 102, HV SEQ ID NO: 103 (protein, Synthetically generated oligonucleotide) chain 1: QSELTQDPAVSVALGQAVIITCQGDSLRTYYPSWYQQKPGQAPTLLVYGKNKRPSGVPDRFSGSRSGDTASLIITGAQAEDDADYYCNSRDGSGHLFVFGPGTTVTVL chain 2: EVQLLESGGGLVQPGGSLRLSCAASGFTFSLYPMQWVRQAPGKGLEWVSYIRSSGGKTHYADSVKGRFTISRDNSKNTLYLQMNSLRAEDTAVYYCARVGMGSGWYTGYFDLWGRGTLVTVSS"
5,bind to human MMP-14,"M0041-A05: Fab that binds human MMP-14; DNA LV SEQ ID NO: 104, HV SEQ ID NO: 105 (antibody, V domains shown, Synthetically generated oligonucleotide) VL: QDIQMTQSPSSLSASVGDRVTITCRASQNINSYLNWYQQKPGKAPKLLIYAASSLQSGVPSRFSGSGSGTDFTLTISSLQPEDFVTYYCQQSYSTPKTFGQGTKVEIK VH: EVQLLESGGGLVQPGGSLRLSCAASGFTFSVYTMHWVRQAPGKGLEWVSVIYPSGGLTIYADSVKGRFTISRDNSKNTLYLQMNSLRAEDTAVYYCARNRGYYAPMDVWGQGTTVTVSS"
6,bind to human MMP-14,"M0040-F03: Fab that binds human MMP-14; DNA LV SEQ ID NO: 96, HV SEQ ID NO: 97 (antibody, V domains shown, Synthetically generated oligonucleotide) VL: QDIQMTQSPLSLPVTPGEPASISCRSGQSLLHSNGYNYLNWYLQKPGQSPQLLIYLGSYRASGVPDRFSGSGSGTDFTLKISRVEAEDVGLYYCMQALQTPLTFGVGTKVEIK VH: EVQLLESGGGLVQPGGSLRLSCAASGFTFSMYVMSWVRQAPGKGLEWVSSISSSGGNTGYADSVKGRFTISRDNSKNTLYLQMNSLRAEDTAVYYCAKSSLYYDILAGPGFDYWGQGTLVTVSS"
7,bind to human MMP-14,"M0040-H04: Fab that binds human MMP-14; DNA LV SEQ ID NO: 100, HV SEQ ID NO: 101 (antibody, V domains shown, Synthetically generated oligonucleotide) VL: QDIQMTQSPDSLAVSLGERATLNCRSSQSVLYSPNNKNYLAWYQQKAGQPPKLLIYWASFRESGVPERFSGSGSGTDFTLTISSLQAEDVAVYYCQQYHTPPWTFGQGTKVEIK VH: EVQLLESGGGLVQPGGSLRLSCAASGFTFSSYDMVWVRQAPGKGLEWVSSISPSGGNTQYADSVKGRFTISRDNSKNTLYLQMNSLRAEDTAVYYCAKVAAMAPWYFDYWGQGTLVTVSS"
8,bind to human MMP-14,"M0039-G05: Fab that binds human MMP-14; DNA LV SEQ ID NO: 74, HV SEQ ID NO: 75 (antibody, V domains shown, Synthetically generated oligonucleotide) VL: QDIQMTQSPSFLSASIGDRVTITCRASQGINTFLAWYQQKPGIAPKLLIYAASTLQSGVPSRFSGSGSGTEFTLTISSLQPEDFATYYCQQLNGYRSFGQGTRLEMK VH: EVQLLESGGGLVQPGGSLRLSCAASGFTFSNYEMGWVRQAPGKGLEWVSWIYSSGGYTSYADSVKGRFTISRDNSKNTLYLQMNSLRAEDTATYYCARDPYYYDSSGYYYYYYYYMDVWGKGTTVTVSS"
9,bind to human MMP-14,"M0040-B06: Fab that binds human MMP-14; DNA LV SEQ ID NO: 88, HV SEQ ID NO: 89 (antibody, V domains shown, Synthetically generated oligonucleotide) VL: QYELTQPPSASGTPGQRVTISCSGSSSNIGRNYVYWYQQVPGTAPKLLIYSNNQRPSGVPDRFSGSKSGTSASLVISGLRSEDEADYYCAAWDASLRGVFGGGTKLTVL VH: EVQLLESGGGLVQPGGSLRLSCAASGFTFSVYPMVWVRQAPGKGLEWVSYISPSGGFTFYADSVKGRFTISRDNSKNTLYLQMNSLRAEDTAVYYCARVPGGSRQDFDIWGQGTMVTVSS"
10,bind to human MMP-14,"M0041-B03: Fab that binds human MMP-14; DNA LV SEQ ID NO: 106, HV SEQ ID NO: 107 (antibody, V domains shown, Synthetically generated oligonucleotide) VL: QDIQMTQSPATLSASVGDRVTISCRASQNISNWLAWYQQKPGKAPKLLIYTASTLHRGVPSRFSGSGSGTDFTLTITSLQPEDFATYYCQQANTFPWTFGQGTKVEIK VH: EVQLLESGGGLVQPGGSLRLSCAASGFTFSMYMMWWVRQAPGKGLEWVSVISSSGGFTSYADSVKGRFTISRDNSKNTLYLQMNSLRAEDTAVYYCARLRYSNFVGGLDVWGQGTTVTVSS"
11,bind to human MMP-14,"M0040-D08: Fab that binds human MMP-14; DNA LV SEQ ID NO: 94, HV SEQ ID NO: 95 (antibody, V domains shown, Synthetically generated oligonucleotide) VL: QSALTQSPSASASLGSSVKLTCTLASEHSGYIIAWHQQQPGKAPRFLMKLDGTGNFNKGSGVPDRFSGYSSGADRYLTISNLQSEDEADYYCETWDSTTLWVFGGGTKLTVL VH: EVQLLESGGGLVQPGGSLRLSCAASGFTFSHYGMTWVRQAPGKGLEWVSSIVPSGGYTAYADSVKGRFTISRDNSKNTLYLQMNSLRAEDTAVYYCTTGLSSSGTRWFDAWGQGTLVTVSS"
12,bind to human MMP-14,"M0040-C10: Fab that binds human MMP-14; DNA LV SEQ ID NO: 92, HV SEQ ID NO: 93 (antibody, V domains shown, Synthetically generated oligonucleotide) VL: QDIQMTQSPATLSASVGDRVTITCRASQTISTYLNWYQHKPGKAPELLIYAASSLQSGVPSRFSGSGSGTDFTLRISSLQPEDFATYYCQQSYTTPWTFGQGTKVEIK VH: EVQLLESGGGLVQPGGSLRLSCAASGFTFSRYMMVWVRQAPGKGLEWVSSIVSSGGKTWYADSVKGRFTISRDNSKNTLYLQMNSLRAEDTAMYYCARWDWGPFDYWGQGTLVTVSS"
